The series in a line: Serum insulin concentration vs. time in diabetic rat after administration of insulin by the microdevice with occlusive layer. It counts as in vivo. The source says: The serum concentration reached 110±5.37 μIU/ml and stayed relatively constant at this level when the occlusive layer was applied.

As for “Novolin R®: Novolin R insulin administered to a diabetic rat by the present microdevice”, under “after removal of the occlusive layer”, the “Serum insulin concentration after removal of the occlusive layer” value is recorded as “rapidly dropped”. For the same substance, for the setting “microdevice administration, occlusive layer applied, level reached and stayed relatively constant”, the Serum insulin concentration came to 110±5.37 μIU/ml.

The values above are taken from US10525246B2, “Microdevice and method for transdermal delivery and sampling of active substances” (NANOMED SKINCARE, INC., priority 2006, dated 2020).
